Reference: PMC5432818, “Biochemical characterization of a functional recombinant aryl-alcohol dehydrogenase from Taiwanofungus camphorata” (Botanical Studies, 2014)

Tested on: COc1ccc(C=O)cc1OC
Test: purified protein
Type: biochemical, Taiwanofungus camphoratus
Settings: reduction, 0.2 mM NADPH fixed, 25 mM bis-tris-propane/HCl pH 6.0, 25 °C, veratraldehyde 0.1-0.4 mM

Substance: TcAAD (also printed TcADD) (Taiwanofungus camphoratus)
- Km: 250 µM
